According to article PMC12084609, “Structural insights into small-molecule agonist recognition and activation of complement receptor C3aR” (The EMBO Journal, 2025):
Changes are numbered by the printed parent chain. Values joined by “and” are separate entries in the source; they are usually repeats but may differ in a detail not shown here. Equal entries are not always repeated. Where two headings read alike, the source gives them in different places.

What was measured:
Type in all cases: cell-based
C3aR L30^1.39A = target: T1, C3aR L30^1.39A (Homo sapiens, UniProt Q16581, L30A); test: GloSensor-based cAMP assay, C3aR mutant L30A; details: for Mean Diff. of pIC50, WT vs. L30A: Dunnett's multiple comparisons test, WT minus mutant; for ΔpIC50 ± SE of Diff.: L30^1.39A relative to WT C3aR; for cAMP response (% Forskolin): L301.39A
T1 construct: expressed in transfected cells; host or cells: HEK293T
T1 sequence (Q16581 1-482 L30A): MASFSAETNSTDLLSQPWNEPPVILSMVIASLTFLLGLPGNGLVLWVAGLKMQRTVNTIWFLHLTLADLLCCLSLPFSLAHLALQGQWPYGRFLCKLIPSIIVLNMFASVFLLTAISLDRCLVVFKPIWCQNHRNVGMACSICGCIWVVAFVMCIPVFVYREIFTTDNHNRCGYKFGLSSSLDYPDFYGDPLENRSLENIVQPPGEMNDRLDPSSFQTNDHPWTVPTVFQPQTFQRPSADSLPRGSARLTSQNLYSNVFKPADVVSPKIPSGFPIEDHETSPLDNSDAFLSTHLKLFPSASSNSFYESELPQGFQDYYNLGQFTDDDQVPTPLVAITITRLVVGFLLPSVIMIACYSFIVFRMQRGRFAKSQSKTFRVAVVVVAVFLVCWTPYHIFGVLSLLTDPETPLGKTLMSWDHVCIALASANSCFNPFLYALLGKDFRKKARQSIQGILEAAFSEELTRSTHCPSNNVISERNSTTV
Description: (§1) HEK293T cells were seeded on 6-well plates (NEST) and transfected with pGlosensor™-22F plasmids (Promega) and pcDNA3.1 plasmids encoding C3aR or its mutants an with N-terminal FLAG tag. After 48 h, cells were detached with Accutase solution (Sigma-Aldrich) and washed with PBS, and resuspended in assay buffer (CO2-independent medium with 0.5 mg mL^−1D-luciferin). 100,000–200,000 cells were seeded on 96-well white bottom plates (SPL) and incubated at 37 °C for 45 min followed by 45 min incubation at room temperature. After 90 min of incubation, basal luminescence signals were recorded. In total, 25 μl of test ligand with various concentrations and 1 μM Forskolin (Sigma-Aldrich) were treated to the cells and luminescence signals were measured by Tristar 2 LB 942 multimode reader (Berthold). […] Relative luminescence unit (%) was calculated with the signal of wells treated with vehicle as 0% and the signal of wells treated with 1 μM Forskolin as 100% (DiRaddo et al, [2014]). Nonlinear regression was performed using a three-parameter logistic equation.

C3aR H81^2.63A = target: T2, C3aR H81^2.63A (Homo sapiens, UniProt Q16581, H81A); test: GloSensor-based cAMP assay, C3aR mutant H81A; details: for Mean Diff. of pIC50, WT vs. H81A: Dunnett's multiple comparisons test, WT minus mutant; for ΔpIC50 ± SE of Diff.: H81^2.63A relative to WT C3aR; for cAMP response (% Forskolin): H812.63A
T2 construct: expressed in transfected cells; host or cells: HEK293T
T2 sequence (Q16581 1-482 H81A): T1 sequence (Q16581 1-482 L30A) with A30L, H81A
Description: as §1

C3aR M106^3.36A = target: T3, C3aR M106^3.36A (Homo sapiens, UniProt Q16581, M106A); test: GloSensor-based cAMP assay, C3aR mutant M106A; details: for Mean Diff. of pIC50, WT vs. M106A: Dunnett's multiple comparisons test, WT minus mutant; for ΔpIC50 ± SE of Diff.: M106^3.36A relative to WT C3aR; for cAMP response (% Forskolin): single replicates
T3 construct: expressed in transfected cells; host or cells: HEK293T
T3 sequence (Q16581 1-482 M106A): T1 sequence (Q16581 1-482 L30A) with A30L, M106A
Description: as §1

[1] = Log[C3a (M)] -7, single replicates
[2] = Log[C3a (M)] -8, single replicates
[3] = Log[C3a (M)] -9, single replicates
[4] = Log[C3a (M)] -10, single replicates
[5] = Log[C3a (M)] -11, single replicates
[6] = Log[C3a (M)] -12, single replicates

## Cc1cc(C(c2ccc(Cl)cc2)c2ccc(Cl)cc2)sc1C(=O)N[C@@H](CCCNC(=N)N)C(=O)O [JR14a, reference compound]
C3aR L30^1.39A
  Mean Diff. of pIC50, WT vs. L30A: 0.012
  ΔpIC50 ± SE of Diff.: -0.01 ± 0.01
C3aR L30^1.39A; IC50, L30^1.39A, dose-response plot
  IC50: 5.58 nM
C3aR L30^1.39A; L30A, Log[JR14a (M)] -6, single replicates, read-out: cAMP response (% Forskolin)
  remaining activity at 1 µM: 12.9%
C3aR L30^1.39A; L30A, Log[JR14a (M)] -7, single replicates, read-out: cAMP response (% Forskolin)
  remaining activity at 0.1 µM: 13.4%
C3aR L30^1.39A; L30A, Log[JR14a (M)] -9, single replicates, read-out: cAMP response (% Forskolin)
  remaining activity at 0.001 µM: 82.6%
C3aR L30^1.39A; L30A, Log[JR14a (M)] -10, single replicates, read-out: cAMP response (% Forskolin)
  remaining activity at 0.0001 µM: 97.9%
C3aR L30^1.39A; L30A, Log[JR14a (M)] -11, single replicates, read-out: cAMP response (% Forskolin)
  remaining activity at 10 pM: 98.1%
C3aR L30^1.39A; pIC50 (Replicate), L30^1.39A, individual replicates
  IC50: 8.91 nM and 6.92 nM
C3aR L30^1.39A; pIC50 ± SEM (Mean), L30^1.39A, mean of independent experiments
  IC50: 5.37 nM
C3aR L30^1.39A; read-out: pIC50 (Replicate) (converted)
  IC50: 2.51 nM
C3aR H81^2.63A
  Mean Diff. of pIC50, WT vs. H81A: 0.544
  ΔpIC50 ± SE of Diff.: -0.54 ± 0.05
C3aR H81^2.63A; H81A, Log[JR14a (M)] -9, single replicates, read-out: cAMP response (% Forskolin)
  remaining activity at 0.001 µM: 94.5%
C3aR H81^2.63A; H81A, Log[JR14a (M)] -10, single replicates, read-out: cAMP response (% Forskolin)
  remaining activity at 0.0001 µM: 95.5%
C3aR H81^2.63A; H81A, Log[JR14a (M)] -11, single replicates, read-out: cAMP response (% Forskolin)
  remaining activity at 10 pM: 93.3%
C3aR H81^2.63A; H81^2.63A, individual replicates, read-out: pIC50 (Replicate) (converted)
  IC50: 6.31 nM
C3aR H81^2.63A; IC50, H81^2.63A, dose-response plot
  IC50: 12.4 nM
C3aR H81^2.63A; pIC50 (Replicate), H81^2.63A, individual replicates
  IC50: 12 nM and 16.2 nM and 18.2 nM
C3aR M106^3.36A
  Mean Diff. of pIC50, WT vs. M106A: -0.207
  ΔpIC50 ± SE of Diff.: 0.21 ± 0.09
C3aR M106^3.36A; IC50, M106^3.36A, dose-response plot
  IC50: 3.24 nM
C3aR M106^3.36A; pIC50 (Replicate), M106^3.36A, individual replicates
  IC50: 3.63 nM and 7.41 nM and 1.29 nM

## C3a: anaphylatoxin C3a, natural peptide ligand of C3aR (a 77-amino acid peptide), Sigma-Aldrich
C3aR L30^1.39A
  Mean Diff. of pIC50, WT vs. L30A: -0.019
  ΔpIC50 ± SE of Diff.: 0.019 ± 0.009
C3aR L30^1.39A; L30^1.39A, dose-response plot, read-out: IC50
  IC50: 2.77 nM
C3aR L30^1.39A; L30^1.39A, individual replicates
  pIC50 (Replicate): 8.56 and 8.70 and 8.57 and 8.44
C3aR L30^1.39A; L30^1.39A, mean of independent experiments
  pIC50 ± SEM (Mean): 8.57 ± 0.05 and 8.57
C3aR L30^1.39A; [1]
  cAMP response (% Forskolin): 9.08 % Forskolin and 11.83 % Forskolin and 11.69 % Forskolin and 11.40 % Forskolin
C3aR L30^1.39A; [2]
  cAMP response (% Forskolin): 10.54 % Forskolin and 13.47 % Forskolin and 12.71 % Forskolin and 14.92 % Forskolin
C3aR L30^1.39A; [3]
  cAMP response (% Forskolin): 79.63 % Forskolin and 73.91 % Forskolin and 80.93 % Forskolin and 94.77 % Forskolin
C3aR L30^1.39A; [4]
  cAMP response (% Forskolin): 98.57 % Forskolin and 99.49 % Forskolin and 94.04 % Forskolin and 99.72 % Forskolin
C3aR L30^1.39A; [5]
  cAMP response (% Forskolin): 93.76 % Forskolin and 102.28 % Forskolin and 98.92 % Forskolin (2×)
C3aR L30^1.39A; [6]
  cAMP response (% Forskolin): 93.05 % Forskolin and 98.36 % Forskolin and 95.43 % Forskolin and 98.17 % Forskolin
C3aR H81^2.63A
  Mean Diff. of pIC50, WT vs. H81A: 0.390
  ΔpIC50 ± SE of Diff.: -0.39 ± 0.05
C3aR H81^2.63A; H81^2.63A, dose-response plot, read-out: IC50
  IC50: 7.45 nM
C3aR H81^2.63A; H81^2.63A, individual replicates
  pIC50 (Replicate): 8.23 and 8.03 and 8.24 and 8.26 and 7.82 and 8.16 and 8.00
C3aR H81^2.63A; H81^2.63A, mean of independent experiments
  pIC50 ± SEM (Mean): 8.11
C3aR H81^2.63A; [1]
  cAMP response (% Forskolin): 16.97 % Forskolin and 18.16 % Forskolin and 16.81 % Forskolin and 12.45 % Forskolin and 16.49 % Forskolin and 12.75 % Forskolin and 10.89 % Forskolin
C3aR H81^2.63A; [2]
  cAMP response (% Forskolin): 37.38 % Forskolin and 51.57 % Forskolin and 36.98 % Forskolin and 30.38 % Forskolin and 58.58 % Forskolin and 40.19 % Forskolin and 48.13 % Forskolin
C3aR H81^2.63A; [3]
  cAMP response (% Forskolin): 95.75 % Forskolin and 95.02 % Forskolin and 98.54 % Forskolin and 105.34 % Forskolin and 92.35 % Forskolin and 92.22 % Forskolin and 94.48 % Forskolin
C3aR H81^2.63A; [4]
  cAMP response (% Forskolin): 97.40 % Forskolin and 98.52 % Forskolin and 99.76 % Forskolin and 98.68 % Forskolin and 88.34 % Forskolin and 99.56 % Forskolin and 95.62 % Forskolin
C3aR H81^2.63A; [5]
  cAMP response (% Forskolin): 96.99 % Forskolin and 98.64 % Forskolin and 99.98 % Forskolin and 102.79 % Forskolin and 93.58 % Forskolin and 91.17 % Forskolin and 97.12 % Forskolin
C3aR H81^2.63A; [6]
  cAMP response (% Forskolin): 95.00 % Forskolin and 97.54 % Forskolin and 97.75 % Forskolin and 103.25 % Forskolin and 100.37 % Forskolin and 97.05 % Forskolin and 96.06 % Forskolin
C3aR M106^3.36A
  Mean Diff. of pIC50, WT vs. M106A: 0.034
  ΔpIC50 ± SE of Diff.: -0.03 ± 0.03
C3aR M106^3.36A; M106A, Log[C3a (M)] -7
  cAMP response (% Forskolin): 8.75 % Forskolin and 12.90 % Forskolin and 9.09 % Forskolin
C3aR M106^3.36A; M106A, Log[C3a (M)] -8
  cAMP response (% Forskolin): 9.11 % Forskolin and 12.58 % Forskolin and 9.15 % Forskolin
C3aR M106^3.36A; M106A, Log[C3a (M)] -9
  cAMP response (% Forskolin): 42.52 % Forskolin and 48.08 % Forskolin and 24.26 % Forskolin
C3aR M106^3.36A; M106A, Log[C3a (M)] -10
  cAMP response (% Forskolin): 70.86 % Forskolin and 84.09 % Forskolin and 59.73 % Forskolin
C3aR M106^3.36A; M106A, Log[C3a (M)] -11
  cAMP response (% Forskolin): 100.00 % Forskolin and 94.62 % Forskolin and 93.38 % Forskolin
C3aR M106^3.36A; M106A, Log[C3a (M)] -12
  cAMP response (% Forskolin): 103.69 % Forskolin and 97.63 % Forskolin and 101.57 % Forskolin
C3aR M106^3.36A; M106^3.36A, individual replicates
  pIC50 (Replicate): 8.59 and 8.68 and 8.47 and 8.31
C3aR M106^3.36A; M1063.36A, Log[C3a (M)] -7
  cAMP response (% Forskolin): 12.14 % Forskolin and 11.95 % Forskolin and 11.63 % Forskolin and 13.11 % Forskolin
C3aR M106^3.36A; M1063.36A, Log[C3a (M)] -8
  cAMP response (% Forskolin): 15.30 % Forskolin and 16.36 % Forskolin and 17.61 % Forskolin and 30.65 % Forskolin
C3aR M106^3.36A; M1063.36A, Log[C3a (M)] -9
  cAMP response (% Forskolin): 79.42 % Forskolin and 72.88 % Forskolin and 85.10 % Forskolin and 95.05 % Forskolin
C3aR M106^3.36A; M1063.36A, Log[C3a (M)] -10
  cAMP response (% Forskolin): 93.61 % Forskolin and 101.94 % Forskolin and 98.48 % Forskolin and 102.99 % Forskolin
C3aR M106^3.36A; M1063.36A, Log[C3a (M)] -11
  cAMP response (% Forskolin): 97.40 % Forskolin and 101.43 % Forskolin and 95.22 % Forskolin and 99.89 % Forskolin
C3aR M106^3.36A; M1063.36A, Log[C3a (M)] -12
  cAMP response (% Forskolin): 100.17 % Forskolin and 94.23 % Forskolin and 92.07 % Forskolin and 95.27 % Forskolin
